Test results from the supplement of paper PMC10201428.
± gives the standard deviation of the averaged measurements.

Tests used:
[1] = test system: VchCAST RNA-guided transposition machinery (E. coli BL21(DE3) host, lacZ target); test: relative integration efficiency (T-RL orientation) vs wild-type transposon end (log2 (normalized fold change)); transposon end mutated: right end (5 bp flank + 75 bp right end); higher = more efficient transposition
Summary of the method: (§1)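 Pools of 1549 left-end or 1849 right-end barcoded transposon variants were cloned into a pUC57 mini-transposon donor and co-transformed into E. coli BL21(DE3) with a T7-driven effector plasmid carrying a CRISPR array, tniQ-cas8-cas7-cas6 and tnsA-tnsB-tnsC. Plating used 0.1 mM IPTG at 37°C for 18 h, and input plasmids and genomic integration junctions were PCR-amplified for Illumina sequencing, with two biological output replicates and four reference barcodes. Relative integration efficiency is the log-transformed fold change of output over input barcode abundance, normalised to the reference barcodes.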

[2] = test system: VchCAST RNA-guided transposition machinery (E. coli BL21(DE3) host, lacZ target); test: relative integration efficiency (T-LR orientation) vs wild-type transposon end (log2 (normalized fold change)); transposon end mutated: right end (5 bp flank + 75 bp right end); higher = more efficient transposition
Summary of the method: as §1

| Sequence | relative integration efficiency (log2) [1] | relative integration efficiency (log2) [2] |
| --- | --- | --- |
| ACATTTGTTGATACACCCATAAATTGATATTGCCAACCATAAAGTGATATTTATCACAACCATAAGTTGATATTTTCTCTGATCATAGTCAGACCAACATTGCTACGACCCGTATTCGCACCGACAC | -0.617 ± 0.14 | -0.0145 ± 0.0084 |
| CAATTTGTTGATACAACCATAAAATGATAATTACACCCATAAATTGATAATTATCACACCCATAAATTGATATTGCCTCTGATCATAGTCAGACCAACATTGCTACGACCCGTATTCGCACCGACAC | -0.1076 ± 0.00032 | 0.164 ± 0.0064 |
| ACATTTGTTGATACAACCATAAAATGATAAGGCAACCCATAAATTGATAATTATCACACCCATAAATTGATATTGCCTCTGATCATAGTCAGACCAACATTGCTACGACCCGTATTCGCACCGACAC | -0.5904 ± 0.00039 | -0.414 ± 0.36 |
| ACATTTGTTGATACAACCATAAAATGATCCGGCCACCCATAAATTGATCCGGCTCACACCCATAAATTGATCGGTACTCTGATCATAGTCAGACCAACATTGCTACGACCCGTATTCGCACCGACAC | -2.73 ± 0.41 | -0.827 ± 0.14 |
| ACATTTGTTCATACAACCATAAAACGATAATTACACCCATAAATTCATCATTATCACACCCAATTTAACTATAACGCTCTGATCATAGTCAGACCAACATTGCTACGACCCGTATTCGCACCGACAC | -2.49 ± 0.11 | -0.684 ± 0.17 |
| ACATTTGTCGATACAACCATAAAACGATAATTACACCCATAAATTGATCATTATCACACCCAATTTAACTATAACGCTCTGATCATAGTCAGACCAACATTGCTACGACCCGTATTCGCACCGACAC | -1.88 ± 0.3 | 1.9 ± 0.036 |
| ACATTTGTTGATACCACCATAAAATGGTAATTCCACCCCTAAATTGATAATTATCACACCCAATTTAACTATAACGCTCTGATCATAGTCAGACCAACATTGCTACGACCCGTATTCGCACCGACAC | -3.4 ± 0.27 | -0.252 ± 0.21 |
| ACATTTGTGGATACAACCCTAAAATGATAATTACACCCATAAATGGATCATTATCACACCCAATTTAACTATAACGCTCTGATCATAGTCAGACCAACATTGCTACGACCCGTATTCGCACCGACAC | -3.94 ± 0.38 | -1.6 ± 0.071 |
| ACATTTGTTGATACAACCATAAAATGATATATACACCCATAAATTGATAATTATCACACCCATAAATTGATATTGCCTCTGATCATAGTCAGACCAACATTGCTACGACCCGTATTCGCACCGACAC | -0.131 ± 0.097 | 0.0362 ± 0.23 |
| ACATTTGTTGATACAACCATAAAATGATAATTACACCCATAAATTGATAATTATCACACCCATAAATTGATATTGCCTCTAGCTTGATCTACATTGGATTGCCATTCTCTCACAGTAGCACCGACAC | 0.0681 ± 0.22 | 0.213 ± 0.1 |
| AACTTTGTTGATACAACCATAAAATGATAATTACACCCATAAATTGATAATTATCACACCCATAAATTGATATTGCCTCTGATCATAGTCAGACCAACATTGCTACGACCCGTATTCGCACCGACAC | -0.217 ± 0.078 | 0.0855 ± 0.25 |
| ACATTTGTTGATACAACCATAAAATCATCATTACCCCCATCAATTGATAATTATCCCACCCCATTTAACTATAACGCTCTGATCATAGTCAGACCAACATTGCTACGACCCGTATTCGCACCGACAC | -5.09 ± 0.14 | -1.6 ± 0.036 |
| ACATTTGTTGATACCACCATCAAATGATAATTACACCCATAAATTGATAATTATCACACCCAATTTAACTATAACGCTCTGATCATAGTCAGACCAACATTGCTACGACCCGTATTCGCACCGACAC | -1.91 ± 0.26 | 1.14 ± 0.18 |
| ACATTTGTTGATACAACCATATATTGATATCTCCAACCATAAAATGATAATTATCACAACCATAAAATGATAATTACTCTGATCATAGTCAGACCAACATTGCTACGACCCGTATTCGCACCGACAC | -0.172 ± 0.01 | -0.314 ± 0.062 |
| ACATTTGTTGATACAACCATAAAATGATAATTACACCCATAAATTGATAATTATCACACCCATAAATTGATATTGCCTCTGATAACTTCGTATAGTATACATTATACGAAGTTATTCGCACCGACAC | -2.13 ± 0.21 | 2.27 ± 0.2 |
| ACATTTGTTGATACAACCATAAAATGATAATTAATAATTATTCACCCATAAATTGATAATTATCAACAAACGCCCGGTCGCGGTACTCTGATCATAGTCAGACCAACATTGCTACGACCCGTATTCG | -2.63 ± 0.4 | 0.337 ± 0.11 |
| ACATTTGTCAACCATAAAATGATAATTACACCCATAAATTGATAATTATCACACCCATAAATTGATATTGCCTCTGATCATAGTCAGACCAACATTGCTACGACCCGTATTCGCACCGACACTGACT | -6.76 ± 0.31 | -4.8 ± 0.66 |
| ACATTTGTTGATACAACCATAAAATGATAATTACACCCATAAATTGATAATTATCACACCCATAAATTGATATTGCCTCTTCATGGTCTAAACTTCAGTAAGTTTACGACATTTTCAGCACCGACAC | -0.93 ± 0.4 | 1.44 ± 0.19 |
